# In patent US20240254220A1, “COMBINED THERAPY USING ANTI-CD300C ANTIBODY” (CentricsBio, Inc., priority 2021, published 2024):
# B1: CL7: anti-CD300c monoclonal antibody, VH3VL1 phage library, VH SEQ ID 327, VL SEQ ID 328 (antibody, V domains shown)
# VH: EVQLLESGGGLVQPGGSLRLSCAASGFTFSRYAMSWVRQAPGKGLEWVSAISGSGGSTYYADSVKGRFTISRDNSKNTLYLQMNSLRAEDTAVYYCARSSQGIFDIWGQGTLVTVSS
# VL: QSVLTQPPSASGTPGQRVTISCSGNNIGTRRVHWYQQLPDTAPKLLIYSKNNRPSGVPDRFSGSKSGTSASLAISGLRSEDEADYYCAAWDDSLSGPVFGGGTKLTVL
# modifications: CL7 Heavy Chain Variable Region; CL7 Light Chain Variable Region
# Tests used:
# CD300a antigen = target: T1, CD300a antigen (Homo sapiens, UniProt Q9UGN4); test: CD300a cross-reactivity binding ELISA; details: CD300a antigen 0.039, 0.63, 10 μg/mL
# T1 construct: purchased Sino Biological 12449-H08H
# T1 sequence (Q9UGN4 18-180 limits assumed): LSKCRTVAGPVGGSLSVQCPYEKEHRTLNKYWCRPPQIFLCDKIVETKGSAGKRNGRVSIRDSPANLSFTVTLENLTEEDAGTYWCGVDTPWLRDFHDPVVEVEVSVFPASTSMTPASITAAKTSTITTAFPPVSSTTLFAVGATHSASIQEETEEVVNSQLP
# Procedure: More specifically, the CD300a antigen (from Sino Biological) was used to treat at concentrations of 0.039 μg/mL, 0.63 μg/mL, and 10 μg/mL, and then binding ELISA was performed by the same method as in Experimental Example 2.1.
# [1] = test system: colon cancer cell line (CT26) tumor; test: Tumor immune cell FACS analysis in CT26 syngeneic mouse tumor model; assay type: in vivo, BALB/c mice
# Description: In order to identify effects of the anti-CD300c monoclonal antibody CL7 on tumor-associated macrophages under in vivo conditions, a colon cancer cell line (CT26) at 2×10^5 cells was transplanted by subcutaneous injection into 8-week-old BALB/c mice to prepare syngeneic mouse tumor models. Animal breeding and experiments were all conducted in a specific pathogen free (SPF) facility. In addition, 12 days after transplantation of the colon cancer cell line, the mice with a tumor size of 50 mm^3 to 100 mm^3 were separately administered the anti-CD300c monoclonal antibody, and for a control group, the mice were injected with the same amount of phosphate buffered saline (PBS). The mice were intraperitoneally injected with 25 mg/kg of each substance twice a week for two weeks over a total of 4 times. On day 25 after the injection, the mice were sacrificed, and the tumor tissue was collected from each of six mice in the CL7 25 mg/kg administration group showing a highest antitumor effect compared with the control group. The tumor tissue was taken out and then incubated at 37° C. for 1 hour in a mixed solution of collagenase D (20 mg/mL) and DNase I (2 mg/mL). Thereafter, the resultant product was filtered through a 70 μm cell strainer, followed by the lysis of red blood cells, and then again filtered through a nylon mesh. Subsequently, the single cell suspension was blocked with CD16/32 antibody (from Invitrogen), and the cells were stained with a staining solution for checking cell viability (from Invitrogen), and antibodies (from Abcam) to the total macrophage marker F4/80 and the M1 macrophage marker iNOS. Then, the data were read with CytoFLEX flow cytometer and analyzed with FlowJo software.
# In order to identify effects of the anti-CD300c monoclonal antibody CL7 on CD8+ T cells under in vivo conditions, syngeneic mouse tumor models were prepared as in Experimental Example 3.2 and administered the anti-CD300c monoclonal antibody at the same concentration.
# (§1) On day 25 after the injection, the mice were sacrificed, and the tumor tissue was collected from each of six mice in the CL7 25 mg/kg administration group showing a highest antitumor effect compared with the control group. The tumor tissue was taken out and then incubated at 37° C. for 1 hour in a mixed solution of collagenase D (20 mg/mL) and DNase I (2 mg/mL). Thereafter, the resultant product was filtered through a 70 μm cell strainer, followed by the lysis of red blood cells, and then again filtered through a nylon mesh. Subsequently, the single cell suspension was blocked with CD16/32 antibody (from Invitrogen), and the cells were stained with a staining solution for checking cell viability and a CD8+ antibody (from Abcam) and a CD4+ antibody (from Abcam). Thereafter, the data were read with CytoFLEX flow cytometer and analyzed with FlowJo software.
# as §1, with “In order to identify whether the anti-CD300c monoclonal antibody CL7 increases the number of CD8+ T cells in a tumor-specific manner, syngeneic mouse tumor models were prepared as in Experimental Example 3.2 and administered the anti-CD300c monoclonal antibody at the same concentration. On” for “On”, “AH1 tetramer” for “a CD8+ antibody (from Abcam) and a CD4+”, “software. […]” for “software.”
# [2] = test system: mouse macrophages (Raw264.7); test: TNF-α production in mouse macrophages (M1 differentiation); assay type: cell-based; details: Raw264.7, 10 μg/mL
# Procedure: In order to identify whether anti-CD300c monoclonal antibodies can promote the differentiation from mouse macrophages into M1 macrophages, mouse macrophages (Raw264.7) were dispensed into a 96-well plate at a concentration of 1×10^4 cells/well, and then treated with 10 μg/mL CL7, followed by incubation. Thereafter, the production amount of TNF-α was identified by an ELISA kit (Human TNF-α Quantikine kit, R&D Systems).
# [3] = Experimental Example 3.7, 25 mg/kg i.p., day 25
molecule,measurement,setting,value
B1,binding to antigens other than CD300c (CD300a),CD300a antigen,did not bind to antigens other than CD300c
same,expression level of M1 type tumor-associated macrophages in cancer tissue,"[1]; 25 mg/kg i.p. twice a week, 4 times, day 25, vs PBS",increased
same,CD8+ T cells compared with Treg T cells,"[1]; 25 mg/kg i.p., day 25",increased
same,expression of AH1 tetramer in CD8+ T cells,"[1]; 25 mg/kg i.p., day 25",increased
same,number of T cells in tumor,"[1]; 25 mg/kg i.p., day 25, CD8+/CD4+ staining",increased
same,activated CD8+ T cells,[1]; [3],significantly increased
same,regulatory T cells,[1]; [3],inhibited
same,tumor-associated macrophage phenotype,[1]; [3],repolarized tumor-associated macrophages towards M1 phenotype
same,production level of TNF-α,[2],increased
